Data set [1] concerns the target T1, hEndoU H285A/R385K (Homo sapiens, UniProt P21128 135-410, H285A;R385K).
T1 sequence: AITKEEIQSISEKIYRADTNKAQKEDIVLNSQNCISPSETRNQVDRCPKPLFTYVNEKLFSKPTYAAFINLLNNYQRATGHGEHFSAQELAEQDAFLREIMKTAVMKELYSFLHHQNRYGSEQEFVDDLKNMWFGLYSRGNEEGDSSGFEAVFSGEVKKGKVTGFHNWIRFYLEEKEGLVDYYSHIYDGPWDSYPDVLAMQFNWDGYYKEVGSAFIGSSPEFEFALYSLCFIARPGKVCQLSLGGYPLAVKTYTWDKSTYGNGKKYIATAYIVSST
The experiment in a line: EMSA.

In data set [2] the target is T2, hEndoU E284A (Homo sapiens, UniProt P21128 135-410, E284A).
T2 sequence: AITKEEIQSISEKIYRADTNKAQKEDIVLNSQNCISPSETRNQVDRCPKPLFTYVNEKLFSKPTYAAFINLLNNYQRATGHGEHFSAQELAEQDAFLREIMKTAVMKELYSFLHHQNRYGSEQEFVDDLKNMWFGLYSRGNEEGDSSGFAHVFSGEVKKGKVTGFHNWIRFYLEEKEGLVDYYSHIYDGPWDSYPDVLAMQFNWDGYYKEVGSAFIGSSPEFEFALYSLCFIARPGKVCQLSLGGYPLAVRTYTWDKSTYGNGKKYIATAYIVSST
The experiment in a line: EMSA.

Data set [3] has as its target T3, hEndoU H285A (Homo sapiens, UniProt P21128 135-410, H285A).
T3 sequence: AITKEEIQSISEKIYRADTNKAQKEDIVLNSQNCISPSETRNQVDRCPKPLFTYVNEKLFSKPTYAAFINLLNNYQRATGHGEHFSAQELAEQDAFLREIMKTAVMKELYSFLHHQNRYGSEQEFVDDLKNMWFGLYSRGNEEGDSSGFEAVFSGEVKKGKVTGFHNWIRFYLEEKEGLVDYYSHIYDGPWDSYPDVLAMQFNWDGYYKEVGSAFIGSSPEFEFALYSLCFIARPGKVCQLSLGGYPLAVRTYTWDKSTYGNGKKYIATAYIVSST
The experiment in a line: EMSA.

In data set [4] the target is T4, hEndoU H285A/R385A (Homo sapiens, UniProt P21128 135-410, H285A;R385A).
T4 sequence: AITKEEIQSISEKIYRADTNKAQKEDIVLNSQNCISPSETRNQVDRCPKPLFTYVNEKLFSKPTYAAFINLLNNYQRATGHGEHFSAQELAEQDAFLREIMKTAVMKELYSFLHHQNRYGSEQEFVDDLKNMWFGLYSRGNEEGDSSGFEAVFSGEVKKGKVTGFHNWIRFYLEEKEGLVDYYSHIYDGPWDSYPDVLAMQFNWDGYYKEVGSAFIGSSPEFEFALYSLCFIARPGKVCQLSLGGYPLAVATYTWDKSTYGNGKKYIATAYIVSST
The experiment in a line: EMSA.

The target of data set [5] is T5, hEndoU WT (Homo sapiens, UniProt P21128 135-410).
T5 sequence: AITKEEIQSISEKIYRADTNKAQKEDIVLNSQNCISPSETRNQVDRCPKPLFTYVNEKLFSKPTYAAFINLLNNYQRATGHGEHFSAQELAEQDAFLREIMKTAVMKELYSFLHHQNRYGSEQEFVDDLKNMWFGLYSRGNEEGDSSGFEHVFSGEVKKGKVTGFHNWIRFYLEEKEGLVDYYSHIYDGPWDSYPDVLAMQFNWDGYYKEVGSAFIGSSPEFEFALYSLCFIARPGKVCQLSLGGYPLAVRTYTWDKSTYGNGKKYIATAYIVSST
The data set can be described thus: NMR.

Data set [6] deals with T5, hEndoU WT. The experiment in a line: NMR. The source holds these as a separate data set.

Read-outs that look alike come from different tables or passages of the source.

Regarding CACGAGUACCAGAAAACCAAAA (ssRNA) [single-uridylate RNA], the binding result in data set [1], in data set [2], in data set [3] and in data set [4] was “binds” in each case.

For AAGUCC (XNA, 2'-F at all nucleotides) [2'-F RNA AAGUCC], in data set [5], the binding result is “binds”.

As to UUUUUU (XNA, 2'-F at all nucleotides) [2'-F (U)6], in data set [6], the binding result is “binds”.
